# Reference: the supplement of paper PMC10567573
# B1: PKD2L1 (parent)
# chain: VFIFYYVVEEILELHIHRLRYLSS
# Variants of: B1
# Assay: protein stability index of a GFP-peptide fusion (GPS, HEK-293T) (PSI 1-6); higher = more stable
# Details: c terminus: a fixed tail appended
# 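Also: lentivirally expressed fusions sorted by FACS into six bins by GFP to DsRed ratio, PSI derived from sequencing read proportions per bin multiplied by bin number.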
row,Variant,protein stability index
1,VFIFYYVVEEILCLHIHRLRYLSS [E13C],3.03
2,VFIFYYVVEEILMLHIHRLRYLSS [E13M],2.72
3,VFIFYYVVEEILFLHIHRLRYLSS [E13F],3.37
4,VFIFYYVVEEILHLHIHRLRYLSS [E13H],3.19
5,VFIFYYVVEEILELHIHRWRYLSS [L19W],3.75
6,VFIFYYVVEEILELHIHRDRYLSS [L19D],2.8
7,VFIFYYVVEEILELHIHRCRYLSS [L19C],2.7
8,VFIFYYVVEEILELHIHRTRYLSS [L19T],4.02
9,VFIFYYVVEEILELHIHRMRYLSS [L19M],2.53
10,VFIFYYVVEEILELHIHRNRYLSS [L19N],2.31
11,VFIFYYVVEEINELHIHRLRYLSS [L12N],2.41
12,VFIFYYVVEEIWELHIHRLRYLSS [L12W],2.15
13,VFIFYYVVEEIRELHIHRLRYLSS [L12R],2.27
14,VFIFYYVVEEIQELHIHRLRYLSS [L12Q],3.48
15,VFIFYYVVEEIPELHIHRLRYLSS [L12P],1.95
16,VFIFYYVVEEIYELHIHRLRYLSS [L12Y],2.89
17,VFIFYYVVEEITELHIHRLRYLSS [L12T],3.03
18,VFIFYYVVEEILELHIHRLRYLSK [S24K],1.12
19,VFIFYYVVEEILELHIHRLRYLSN [S24N],3.95
20,VFIFYYVVEEILELHIHRLRYLSP [S24P],2.94
21,VFIFYYVVEEILELHIHRLRYLSF [S24F],2.37
22,VFIFYYVVEEILELHIHRLRYLSE [S24E],2.21
23,VFIFYYVVEEILELHIHRLRYLSL [S24L],2.58
24,VFIFYYVVEEILELHIHRLRYLST [S24T],2.47

row,Variant,protein stability index
1,VFIFYYVVEEILELHIHRLRYLSH [S24H],3.15
2,VFIFYYVVEEILELHIHRLRYGSS [L22G],2.34
3,VFIFYYVVEEILELHIHRLRYPSS [L22P],4.59
4,VFIFYYVVEEILELHIHRLRYCSS [L22C],3.65
5,VFIFYYVVEEILELHIHRLRYFSS [L22F],3.34
6,VFIFYYVVEEILELHIHRLRYTSS [L22T],3.77
7,VFIFYYVVEEILELHIHRLRYKSS [L22K],3.19
8,VFIFYYVVEEILELHIHRLRYESS [L22E],2.43
9,VFIFYYVVEEILELHIHRLRYISS [L22I],3.59
10,VFIFYYVVEEILELHIHRLRYNSS [L22N],1.32
11,VFIFYYVVEEILELDIHRLRYLSS [H15D],2.24
12,VFIFYYVVEEILELWIHRLRYLSS [H15W],2.13
13,VFIFYYVVEEILELYIHRLRYLSS [H15Y],3.19
14,VFIFYYVVEEILELVIHRLRYLSS [H15V],2.21
15,VFIFYYVVEEILELPIHRLRYLSS [H15P],3.51
16,VFIFYYVVEEILELTIHRLRYLSS [H15T],2.71
17,VFIFYYVVEEILELCIHRLRYLSS [H15C],2.86
18,VFIFYYVVEEILELRIHRLRYLSS [H15R],2.97
19,VFIFYYVVEEILELNIHRLRYLSS [H15N],3.63
20,VFIFYYVVEEILELMIHRLRYLSS [H15M],3.1
21,VFIFYYVVEEILELHWHRLRYLSS [I16W],3.5
22,VFIFYYVVEEILELHYHRLRYLSS [I16Y],2.18
23,VFIFYYVVEEILELHKHRLRYLSS [I16K],2.34
24,VFIFYYVVEEILELHGHRLRYLSS [I16G],3.3

row,Variant,protein stability index
1,VFIFYYVVEEILELHMHRLRYLSS [I16M],2.9
2,VFIFYYVVEEILELHSHRLRYLSS [I16S],3.37
3,VFIFYYVVEEILELHEHRLRYLSS [I16E],2.46
4,VFIFYYVVEEILELHNHRLRYLSS [I16N],3.35
5,VFIFYYVVEEILELHRHRLRYLSS [I16R],2.6
6,VFIFYYVVEEILELHDHRLRYLSS [I16D],3.73
7,VFIFYYVVEEILELHCHRLRYLSS [I16C],3.5
8,VFIFYYVVEEILELHAHRLRYLSS [I16A],2.11
9,VFIFYYVVEEILELHFHRLRYLSS [I16F],3.25
10,VFIFYYVVEEILELHLHRLRYLSS [I16L],2.92
11,VFIFYYVVEEILELHIARLRYLSS [H17A],2.18
12,VFIFYYVVEEILELHIGRLRYLSS [H17G],4.03
13,VFIFYYVVEEILELHIMRLRYLSS [H17M],3.93
14,VFIFYYVVEEILELHIERLRYLSS [H17E],1.77
15,VFIFYYVVEEILELHIFRLRYLSS [H17F],2.87
16,VFIFYYVVEEILELHIKRLRYLSS [H17K],2.13
17,VFIFYYVVEEILELHIYRLRYLSS [H17Y],2.69
18,VFIFYYVVEEILELHIVRLRYLSS [H17V],4.2
19,VFIFYYVVEEILELHIPRLRYLSS [H17P],2.54
20,VFIFYYVVEEILELHIIRLRYLSS [H17I],2.97
21,VFIFYYVVEEILELHIQRLRYLSS [H17Q],4.68
22,VFIFYYVVEEILELHIDRLRYLSS [H17D],3
23,VFIFYYVVEEILELHILRLRYLSS [H17L],2.14
24,VFIFYYVVEEILELHISRLRYLSS [H17S],3.69

row,Variant,protein stability index
1,VFIFYYVVEEILELHIHRLRHLSS [Y21H],2.96
2,VFIFYYVVEEILELHIHRLRMLSS [Y21M],4.01
3,VFIFYYVVEEILELHIHRLRVLSS [Y21V],3.28
4,VFIFYYVVEEILELHIHRLRELSS [Y21E],2.27
5,VFIFYYVVEEILELHIHRLRFLSS [Y21F],3.66
6,VFIFYYVVEEILELHIHRLRLLSS [Y21L],2.06
7,VFIFYYVVEEILELHIHRLRNLSS [Y21N],1.61
8,VFIFYYVVEEILELHIHRLRPLSS [Y21P],3.02
9,VFIFYYVVEEILELHIHRLRQLSS [Y21Q],3.68
10,VFIFYYVVEEILELHIHRLRTLSS [Y21T],3.04
11,VFIFYYVVEEILELHIHRLRGLSS [Y21G],3.65
12,VFIFYYVVEEILELHIHRLRDLSS [Y21D],1.89
13,VFIFYYVVEEILELHIHRLRKLSS [Y21K],2.84
14,VFIFYYVVEEILELHIHRLRRLSS [Y21R],1.55
15,VFIFYYVVEEILELHIHQLRYLSS [R18Q],2.37
16,VFIFYYVVEEILELHIHLLRYLSS [R18L],3.78
17,VFIFYYVVEEILELHIHCLRYLSS [R18C],2.63
18,VFIFYYVVEEILELHIHHLRYLSS [R18H],1.63
19,VFIFYYVVEEILELHIHMLRYLSS [R18M],3.01
20,VFIFYYVVEEILELHIHVLRYLSS [R18V],1.65
21,VFIFYYVVEEILELHIHKLRYLSS [R18K],2.64
22,VFIFYYVVEEILELHIHELRYLSS [R18E],2.76
